B1: E3 ubiquitin-protein ligase CBL-B (Homo sapiens), Q13191 (parent)
chain: MANSMNGRNPGGRGGNPRKGRILGIIDAIQDAVGPPKQAAADRRTVEKTWKLMDKVVRLCQNPKLQLKNSPPYILDILPDTYQHLRLILSKYDDNQKLAQLSENEYFKIYIDSLMKKSKRAIRLFKEGKERMYEEQSQDRRNLTKLSLIFSHMLAEIKAIFPNGQFQGDNFRITKADAAEFWRKFFGDKTIVPWKVFRQCLHEVHQISSGLEAMALKSTIDLTCNDYISVFEFDIFTRLFQPWGSILRNWNFLAVTHPGYMAFLTYDEVKARLQKYSTKPGSYIFRLSCTRLGQWAIGYVTGDGNILQTIPHNKPLFQALIDGSREGFYLYPDGRSYNPDLTGLCEPTPHDHIKVTQEQYELYCEMGSTFQLCKICAENDKDVKIEPCGHLMCTSCLTAWQESDGQGCPFCRCEIKGTEPIIVDPFDPRDEGSRCCSIIDPFGMPMLDLDDDDDREESLMMNRLANVRKCTDRQNSPVTSPGSSPLAQRRKPQPDPLQIPHLSLPPVPPRLDLIQKGIVRSPCGSPTGSPKSSPCMVRKQDKPLPAPPPPLRDPPPPPPERPPPIPPDNRLSRHIHHVESVPSRDPPMPLEAWCPRDVFGTNQLVGCRLLGEGSPKPGITASSNVNGRHSRVGSDPVLMRKHRRHDLPLEGAKVFSNGHLGSEEYDVPPRLSPPPPVTTLLPSIKCTGPLANSLSEKTRDPVEEDDDEYKIPSSHPVSLNSQPSHCHNVKPPVRSCDNGHCMLNGTHGPSSEKKSNIPDLSIYLKGDVFDSASDPVPLPPARPPTRDNPKHGSSLNRTPSDYDLLIPPLGEDAFDALPPSLPPPPPPARHSLIEHSKPPGSSSRPSSGQDLFLLPSDPFVDLASGQVPLPPARRLPGENVKTNRTSQDYDQLPSCSDGSQAPARPPKPRPRRTAPEIHHRKPHGPEAALENVDAKIAKLMGEGYAFEEVKRALEIAQNNVEVARSILREFAFPPPVSPRLNL

Variants of: B1
Settings: with sh3k1_human SH3KBP1, Q96B97
sh3k1_human SH3KBP1, Q96B97, sequence (Q96B97 whole entry): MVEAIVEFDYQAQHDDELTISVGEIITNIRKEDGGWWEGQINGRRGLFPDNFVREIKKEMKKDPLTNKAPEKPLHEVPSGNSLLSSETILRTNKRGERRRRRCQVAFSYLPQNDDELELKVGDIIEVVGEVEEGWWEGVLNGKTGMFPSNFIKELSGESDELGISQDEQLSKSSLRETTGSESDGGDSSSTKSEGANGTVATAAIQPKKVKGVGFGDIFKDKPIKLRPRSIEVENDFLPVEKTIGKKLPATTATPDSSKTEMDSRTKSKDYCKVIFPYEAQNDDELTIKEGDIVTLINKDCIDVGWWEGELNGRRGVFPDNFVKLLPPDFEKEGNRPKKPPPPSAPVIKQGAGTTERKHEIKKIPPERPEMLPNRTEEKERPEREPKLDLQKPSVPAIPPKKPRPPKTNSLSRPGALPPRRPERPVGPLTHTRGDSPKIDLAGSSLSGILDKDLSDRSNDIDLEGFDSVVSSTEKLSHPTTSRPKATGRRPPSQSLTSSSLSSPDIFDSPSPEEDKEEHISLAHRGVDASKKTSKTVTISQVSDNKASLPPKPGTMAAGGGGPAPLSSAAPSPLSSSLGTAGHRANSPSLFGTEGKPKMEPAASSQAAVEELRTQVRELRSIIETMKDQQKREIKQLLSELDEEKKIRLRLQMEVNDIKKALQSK

Variant | effect of a mutation on the interaction
R911A | decreasing interaction

From IntAct's records for PubMed 12829691
